Experimental data taken from PMC9482650, “Quantitative fragmentomics allow affinity mapping of interactomes” (Nature Communications, 2022).

T1: LRRC7, Q96NW7
T1 sequence (Q96NW7 1440-1537, limits assumed, looked up): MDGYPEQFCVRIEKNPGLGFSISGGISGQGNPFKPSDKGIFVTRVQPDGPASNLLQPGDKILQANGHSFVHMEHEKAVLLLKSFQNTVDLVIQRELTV

T2: MPDZ_10, O75970
T2 sequence (O75970 1624-1722, limits assumed, looked up): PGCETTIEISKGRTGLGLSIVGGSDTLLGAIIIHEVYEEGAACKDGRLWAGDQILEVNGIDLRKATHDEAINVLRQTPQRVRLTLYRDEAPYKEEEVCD

T3: SNTG2, Q9NY99
T3 sequence (Q9NY99 68-166, limits assumed, looked up): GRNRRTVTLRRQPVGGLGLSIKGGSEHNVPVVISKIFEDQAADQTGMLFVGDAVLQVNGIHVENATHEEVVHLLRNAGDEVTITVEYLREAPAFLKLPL

T4: RADIL, Q96JH8
T4 sequence (Q96JH8 971-1071, limits assumed, looked up): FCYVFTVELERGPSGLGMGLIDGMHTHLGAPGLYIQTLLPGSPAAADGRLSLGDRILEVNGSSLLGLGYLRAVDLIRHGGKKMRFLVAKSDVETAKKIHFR

T5: APBA3_1, O96018
T5 sequence (O96018 389-490, limits assumed, looked up): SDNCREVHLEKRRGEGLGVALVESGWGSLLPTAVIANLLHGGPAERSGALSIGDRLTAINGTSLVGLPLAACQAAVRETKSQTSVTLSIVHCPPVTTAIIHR

T6: SYNJ2BP, P57105
T6 sequence (P57105 8-110, limits assumed, looked up): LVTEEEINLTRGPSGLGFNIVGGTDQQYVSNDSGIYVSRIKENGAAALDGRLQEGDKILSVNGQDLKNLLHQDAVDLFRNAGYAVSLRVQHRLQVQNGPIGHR

T7: DLG3_3, Q92796
T7 sequence (Q92796 374-475, limits assumed, looked up): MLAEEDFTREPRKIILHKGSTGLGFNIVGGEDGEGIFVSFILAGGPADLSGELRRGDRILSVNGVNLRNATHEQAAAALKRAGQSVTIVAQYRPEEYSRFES

T8: PARD3B_1, Q8TEW8
T8 sequence (Q8TEW8 196-299, limits assumed, looked up): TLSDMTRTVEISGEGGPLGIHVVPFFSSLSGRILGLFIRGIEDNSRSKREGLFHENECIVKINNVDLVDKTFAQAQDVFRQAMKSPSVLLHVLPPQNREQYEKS

T9: LIN7B, Q9HAP6
T9 sequence (Q9HAP6 88-185, limits assumed, looked up): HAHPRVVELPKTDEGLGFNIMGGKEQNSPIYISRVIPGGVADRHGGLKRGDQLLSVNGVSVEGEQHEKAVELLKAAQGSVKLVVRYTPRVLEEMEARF

T10: MPP6, Q9NZW5
T10 sequence (Q9NZW5 125-219, limits assumed, looked up): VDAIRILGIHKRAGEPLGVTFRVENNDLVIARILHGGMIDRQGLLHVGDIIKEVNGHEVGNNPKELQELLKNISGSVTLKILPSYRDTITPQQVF


What was measured:
Experiment in all cases: holdup assay
Parameters in all cases: key: below the threshold = too weak to quantify, mostly under pKd 3.1 to 4
Settings in all cases: plain residues with an end cap or a label only (N-terminal biotin on a linker: ado-ado)
AHNAK1, Q09666 = biological target: AHNAK1, Q09666
Sequence of AHNAK1, Q09666 (Q09666 4-100): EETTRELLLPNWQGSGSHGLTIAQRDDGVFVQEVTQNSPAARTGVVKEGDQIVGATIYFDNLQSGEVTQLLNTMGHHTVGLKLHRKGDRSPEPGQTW

Inadl_2, Q8NI35 = biological target: Inadl_2, Q8NI35
Sequence of Inadl_2, Q8NI35 (Q8NI35 238-335): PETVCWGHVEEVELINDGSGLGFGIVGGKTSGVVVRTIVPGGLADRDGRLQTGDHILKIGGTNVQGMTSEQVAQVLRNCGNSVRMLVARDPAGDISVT

LRRC7, Q96NW7 = biological target: T1, LRRC7, Q96NW7
DLG4_3, P78352 = biological target: DLG4_3, P78352
Sequence of DLG4_3, P78352 (P78352 306-403): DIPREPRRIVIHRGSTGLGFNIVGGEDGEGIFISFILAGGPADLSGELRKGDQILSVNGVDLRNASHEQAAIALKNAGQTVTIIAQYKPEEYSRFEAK

FRMPD3, Q5JV73 = biological target: FRMPD3, Q5JV73
Sequence of FRMPD3, Q5JV73 (Q5JV73 12-100): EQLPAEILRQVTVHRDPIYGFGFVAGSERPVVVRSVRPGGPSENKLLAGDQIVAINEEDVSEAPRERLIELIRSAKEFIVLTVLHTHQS

TJP2_1, Q9UDY2 = biological target: TJP2_1, Q9UDY2
Sequence of TJP2_1, Q9UDY2 (Q9UDY2 24-128): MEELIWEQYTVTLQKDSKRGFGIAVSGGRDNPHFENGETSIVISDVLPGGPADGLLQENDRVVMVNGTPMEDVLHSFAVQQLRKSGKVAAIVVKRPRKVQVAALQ

MPDZ_10, O75970 = biological target: T2, MPDZ_10, O75970
DLG5_1, Q8TDM6 = biological target: DLG5_1, Q8TDM6
Sequence of DLG5_1, Q8TDM6 (Q8TDM6 617-713): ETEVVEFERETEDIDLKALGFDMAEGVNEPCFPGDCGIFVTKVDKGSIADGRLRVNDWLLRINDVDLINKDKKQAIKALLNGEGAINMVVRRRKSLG

SNTG2, Q9NY99 = biological target: T3, SNTG2, Q9NY99
DLG1_3, Q12959 = biological target: DLG1_3, Q12959
Sequence of DLG1_3, Q12959 (Q12959 457-571): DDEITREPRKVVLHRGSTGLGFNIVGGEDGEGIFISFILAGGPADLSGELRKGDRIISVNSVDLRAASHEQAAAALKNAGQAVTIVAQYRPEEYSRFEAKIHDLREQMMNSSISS

RADIL, Q96JH8 = biological target: T4, RADIL, Q96JH8
MAST1, Q9Y2H9 = biological target: MAST1, Q9Y2H9
Sequence of MAST1, Q9Y2H9 (Q9Y2H9 962-1065): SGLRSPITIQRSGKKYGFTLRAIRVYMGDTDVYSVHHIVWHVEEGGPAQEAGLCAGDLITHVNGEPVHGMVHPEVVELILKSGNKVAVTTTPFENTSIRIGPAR

GRASP, Q7Z6J2 = biological target: GRASP, Q7Z6J2
Sequence of GRASP, Q7Z6J2 (Q7Z6J2 96-193): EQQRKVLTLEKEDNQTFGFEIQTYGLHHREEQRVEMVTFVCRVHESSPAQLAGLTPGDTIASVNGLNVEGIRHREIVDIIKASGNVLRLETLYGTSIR

Inadl_6, Q8NI35 = biological target: Inadl_6, Q8NI35
Sequence of Inadl_6, Q8NI35 (Q8NI35 1058-1167): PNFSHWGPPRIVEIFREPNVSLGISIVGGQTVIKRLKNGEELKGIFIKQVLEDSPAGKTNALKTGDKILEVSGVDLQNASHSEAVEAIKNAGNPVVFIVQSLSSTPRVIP

NOS1, P29475 = biological target: NOS1, P29475
Sequence of NOS1, P29475 (P29475 9-101): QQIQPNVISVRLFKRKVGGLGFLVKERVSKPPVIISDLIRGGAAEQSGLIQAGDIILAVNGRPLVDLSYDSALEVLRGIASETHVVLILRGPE

APBA3_1, O96018 = biological target: T5, APBA3_1, O96018
SNX27, Q96L92 = biological target: SNX27, Q96L92
NHERF2_2, Q15599 = biological target: NHERF2_2, Q15599
Sequence of NHERF2_2, Q15599 (Q15599 142-238): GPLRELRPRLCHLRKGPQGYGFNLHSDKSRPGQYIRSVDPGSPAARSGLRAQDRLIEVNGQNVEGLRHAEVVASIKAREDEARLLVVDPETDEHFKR

MAGI1_2, Q96QZ7 = biological target: MAGI1_2, Q96QZ7
Sequence of MAGI1_2, Q96QZ7 (Q96QZ7 456-580): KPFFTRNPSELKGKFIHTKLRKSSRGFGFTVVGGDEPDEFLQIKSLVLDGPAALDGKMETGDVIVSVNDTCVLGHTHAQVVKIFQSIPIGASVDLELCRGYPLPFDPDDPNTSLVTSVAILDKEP

SYNJ2BP, P57105 = biological target: T6, SYNJ2BP, P57105
DLG3_3, Q92796 = biological target: T7, DLG3_3, Q92796
NHERF4_1, Q86UT5-2 = biological target: NHERF4_1, Q86UT5-2
Sequence of NHERF4_1, Q86UT5-2 (Q86UT5 other isoform, or with tags, fused parts or gaps): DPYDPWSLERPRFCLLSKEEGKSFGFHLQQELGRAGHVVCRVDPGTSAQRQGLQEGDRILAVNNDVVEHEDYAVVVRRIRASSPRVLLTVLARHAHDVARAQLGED

IL16_4, Q14005 = biological target: IL16_4, Q14005
Sequence of IL16_4, Q14005 (Q14005 1229-1329): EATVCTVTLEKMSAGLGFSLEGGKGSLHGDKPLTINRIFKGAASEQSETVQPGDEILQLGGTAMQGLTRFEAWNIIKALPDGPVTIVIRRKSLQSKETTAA

PARD3_3, Q8TEW0 = biological target: PARD3_3, Q8TEW0
Sequence of PARD3_3, Q8TEW0 (Q8TEW0 582-685): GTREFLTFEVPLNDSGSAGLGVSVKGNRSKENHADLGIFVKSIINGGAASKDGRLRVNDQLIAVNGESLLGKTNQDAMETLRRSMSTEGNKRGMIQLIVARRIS

PARD3B_1, Q8TEW8 = biological target: T8, PARD3B_1, Q8TEW8
LIN7B, Q9HAP6 = biological target: T9, LIN7B, Q9HAP6
MPP6, Q9NZW5 = biological target: T10, MPP6, Q9NZW5
Inadl_9, Q8NI35 = biological target: Inadl_9, Q8NI35
Sequence of Inadl_9, Q8NI35 (Q8NI35 1530-1615): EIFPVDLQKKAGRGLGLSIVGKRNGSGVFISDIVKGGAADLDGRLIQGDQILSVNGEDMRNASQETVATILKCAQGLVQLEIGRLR

Binder | pKd (AHNAK1, Q09666) | pKd (Inadl_2, Q8NI35) | pKd (LRRC7, Q96NW7) | pKd (DLG4_3, P78352) | pKd (FRMPD3, Q5JV73) | pKd (TJP2_1, Q9UDY2) | pKd (MPDZ_10, O75970) | pKd (DLG5_1, Q8TDM6) | pKd (SNTG2, Q9NY99) | pKd (DLG1_3, Q12959) | pKd (RADIL, Q96JH8) | pKd (MAST1, Q9Y2H9) | pKd (GRASP, Q7Z6J2) | pKd (Inadl_6, Q8NI35) | pKd (NOS1, P29475) | pKd (APBA3_1, O96018) | pKd (SNX27, Q96L92) | pKd (NHERF2_2, Q15599) | pKd (MAGI1_2, Q96QZ7) | pKd (SYNJ2BP, P57105) | other results
PYPTADHMLA [JUP, P14923] | below the threshold | below the threshold | below the threshold | below the threshold | below the threshold | below the threshold | below the threshold | below the threshold | below the threshold | below the threshold | below the threshold | below the threshold | below the threshold | below the threshold | below the threshold | below the threshold | below the threshold | below the threshold | below the threshold | below the threshold | pKd (DLG3_3, Q92796): below the threshold; pKd (NHERF4_1, Q86UT5-2): below the threshold; pKd (IL16_4, Q14005): below the threshold; pKd (PARD3_3, Q8TEW0): below the threshold; pKd (PARD3B_1, Q8TEW8): below the threshold; pKd (LIN7B, Q9HAP6): 3.6; pKd (MPP6, Q9NZW5): below the threshold; pKd (Inadl_9, Q8NI35): below the threshold
EKCGKEFSEF [PRKACA, P17612] | below the threshold | below the threshold | below the threshold | below the threshold | below the threshold | below the threshold | below the threshold | below the threshold | below the threshold | below the threshold | below the threshold | 4.21 | 4.16 | below the threshold | below the threshold | below the threshold | below the threshold | 4.18 | below the threshold | below the threshold | pKd (DLG3_3, Q92796): below the threshold; pKd (NHERF4_1, Q86UT5-2): 3.56; pKd (IL16_4, Q14005): below the threshold; pKd (PARD3_3, Q8TEW0): below the threshold; pKd (PARD3B_1, Q8TEW8): 3.91; pKd (LIN7B, Q9HAP6): 3.92; pKd (MPP6, Q9NZW5): below the threshold; pKd (Inadl_9, Q8NI35): below the threshold
TGLWKHETTV [ADGRA3, Q8IWK6] | below the threshold | below the threshold | 3.82 | 4.94 | below the threshold | 3.65 | below the threshold | below the threshold | 4.25 | 4.78 | 4.43 | 4.78 | 3.55 | below the threshold | below the threshold | below the threshold | 5.41 | below the threshold | 4.91 | 5.19 | pKd (DLG3_3, Q92796): 4.77; pKd (NHERF4_1, Q86UT5-2): below the threshold; pKd (IL16_4, Q14005): below the threshold; pKd (PARD3_3, Q8TEW0): 3.54; pKd (PARD3B_1, Q8TEW8): below the threshold; pKd (LIN7B, Q9HAP6): 4.04; pKd (MPP6, Q9NZW5): below the threshold; pKd (Inadl_9, Q8NI35): 3.74
QKAPTKEFYA [SDC2, P34741] | below the threshold | below the threshold | below the threshold | below the threshold | 3.89 | below the threshold | below the threshold | below the threshold | below the threshold | below the threshold | 3.51 | below the threshold | below the threshold | below the threshold | 3.83 | below the threshold | below the threshold | below the threshold | below the threshold | below the threshold | pKd (DLG3_3, Q92796): below the threshold; pKd (NHERF4_1, Q86UT5-2): 3.57; pKd (IL16_4, Q14005): below the threshold; pKd (PARD3_3, Q8TEW0): below the threshold; pKd (PARD3B_1, Q8TEW8): 4.39; pKd (LIN7B, Q9HAP6): 3.53; pKd (MPP6, Q9NZW5): below the threshold; pKd (Inadl_9, Q8NI35): below the threshold
